In paper PMC7718874 (2020):
Where no end group is shown, it is not given here. Me3 = trimethyl-lysine; Me2 = dimethyl-lysine

B1: AIPP3-BAH domain (residues 112-279) (domain or fragment)
chain: GKGKGKRTHFNQFAYDGNTYDLEVPVLLVPEDKSQKPYVAIIKDITQTKDGSMMILGQWFYRPEEAEKRGGGNWQSSDTRELFYSFHRDEVPAESVMHRCVVYFVPAHKQLPKRKNNPGFIVRKVYDTVEKKLWKLTDKDYEDSKQREIDVLVKKTMNVLGDLPDLES
B3: PAIPP2-PHD finger (domain or fragment)
chain: VKVCDICGDAGREDLLAICSGCSDGAEHTYCMREMLDEVPEGDWLCEECAEE

Columns and labels:
Assay in all cases: ITC
[1] = molecular target: T1, H3K27me2 (Arabidopsis thaliana, also: biotinylated in pull-down)
T1 chain: LATKAARK(Me2)SAPATGGVKK

[2] = molecular target: T2, H3K27me1 (Arabidopsis thaliana, also: biotinylated in pull-down)
T2 chain: LATKAARK(Me)SAPATGGVKK

[3] = molecular target: B3
[4] = molecular target: B1
[5] = molecular target: T3, AIPP3-BAH domain Y149A (Arabidopsis, UniProt Q8RXT5 112-279, Y149A)
T3 sequence: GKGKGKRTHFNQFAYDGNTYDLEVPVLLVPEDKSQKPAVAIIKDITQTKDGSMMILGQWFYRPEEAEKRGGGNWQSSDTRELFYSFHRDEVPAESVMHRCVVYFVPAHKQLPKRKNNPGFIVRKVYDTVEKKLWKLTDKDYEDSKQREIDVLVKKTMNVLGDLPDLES

[6] = molecular target: T4, AIPP3-BAH domain H198A (Arabidopsis, UniProt Q8RXT5 112-279, H198A)
T4 sequence: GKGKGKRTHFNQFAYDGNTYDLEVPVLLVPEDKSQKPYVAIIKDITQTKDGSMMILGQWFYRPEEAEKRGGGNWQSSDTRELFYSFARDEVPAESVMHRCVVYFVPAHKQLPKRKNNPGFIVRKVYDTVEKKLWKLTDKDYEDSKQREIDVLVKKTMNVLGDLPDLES

[7] = molecular target: T5, AIPP3-BAH domain D200A (Arabidopsis, UniProt Q8RXT5 112-279, D200A)
T5 sequence: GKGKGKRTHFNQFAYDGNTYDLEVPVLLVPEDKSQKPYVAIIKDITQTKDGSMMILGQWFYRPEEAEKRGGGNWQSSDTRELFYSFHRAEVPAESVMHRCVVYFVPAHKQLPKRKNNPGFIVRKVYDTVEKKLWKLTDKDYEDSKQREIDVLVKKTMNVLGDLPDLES

[8] = molecular target: T6, AIPP3-BAH domain W170A (Arabidopsis, UniProt Q8RXT5 112-279, W170A)
T6 sequence: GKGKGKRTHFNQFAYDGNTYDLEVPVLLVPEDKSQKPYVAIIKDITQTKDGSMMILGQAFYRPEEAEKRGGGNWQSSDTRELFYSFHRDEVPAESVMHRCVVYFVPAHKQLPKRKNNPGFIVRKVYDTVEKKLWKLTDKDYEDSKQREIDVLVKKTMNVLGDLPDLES

[9] = molecular target: T7, H3K4me2 (Arabidopsis thaliana)
T7 chain: ARTK(Me2)QTARKSTGGKA

[10] = molecular target: T8, H3K4me1 (Arabidopsis thaliana)
T8 chain: ARTK(Me)QTARKSTGGKA

Binder: B1
- Kd [1]: 17.1 µM
- Kd [2]: 24.2 µM

B2: unmodified H3K4 peptide (peptide)
chain: ARTKQTARKSTGGKA
modifications: zinc-bound PHD finger; limits from the UniProt ZN_FING feature, construct limits not printed unmodified Lys4; H3 1-15 assumed by convention
- Kd [3]: 18.6 µM

Binder: ARTK(Me3)QTARKSTGGKA [H3K4me3 peptide]
- Kd [4]: 24.3 µM

Binder: LATKAARK(Me3)SAPATGGVKK [H3K27me3 peptide]
- Kd [5]: 19.8 µM
- Kd [6]: 17.4 µM
- Kd [4]: 7.4 µM
- Kd [7]: 34.1 µM
- Kd [8]: 28.5 µM

Binder: B3
- Kd [9]: 30 µM
- Kd [10]: 22.1 µM

Binder: ARTKQTARKSTGGKA (dimethyl-lysine at K9) [H3K9me2 peptide]
- Kd [4]: 17.3 µM
